The source of these data is article PMC6224509 (Nature Communications, 2018).

For assay [1], the target named is T1, human 4-1BB residues 24–186, wild type, His–Avi (human, UniProt Q07011). In words: cell-based or functional assay.
Assay [2] has as its target T1, human 4-1BB residues 24–186, wild type, …. In words: SPR; binding kinetics and affinities, monovalent binding of utomilumab and urelumab to wild type and mutant h4-1BB (Supplementary Figure 8); who was immobilised is not given in the source. The conditions noted are these: both partners purified.
In assay [3] the target is T2, human 4-1BB residues 24–186 M101R, His–Avi (Homo sapiens, UniProt Q07011, M101R).
T2 construct: human 4-1BB (CD137, TNFRSF9), residues 24-186, M101R; source: HEK cells, transfected, secreted, purified (NiExcel, Superdex 200); not shown: His8, C-terminal, kept
Described as above. The conditions noted are these: both partners purified.

In assay [4] the target is T3, human 4-1BB residues 24–186 I132R, His–Avi (Homo sapiens, UniProt Q07011, I132R).
T3 construct: human 4-1BB (CD137, TNFRSF9), residues 24-186, I132R; source: HEK cells, transfected, secreted, purified (NiExcel, Superdex 200); not shown: His8, C-terminal, kept
The description is as above. The following applies: both partners purified.

Broadly, the Kd is the concentration at which binding is half-saturated. A higher Kd goes with a looser complex.

T1 sequence (Q07011 24-186): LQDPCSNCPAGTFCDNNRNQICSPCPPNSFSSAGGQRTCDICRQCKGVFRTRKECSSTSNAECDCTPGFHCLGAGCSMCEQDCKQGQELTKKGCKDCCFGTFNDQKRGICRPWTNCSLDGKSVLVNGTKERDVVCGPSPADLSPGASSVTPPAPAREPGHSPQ
T3 sequence (Q07011 24-186 I132R): as the sequence (Q07011 24-186) above, with I109R counted along it
T2 sequence (Q07011 24-186 M101R): as the sequence (Q07011 24-186) above, with M78R counted along it

B1: urelumab (fully human IgG4 mAb) (antibody, V domains shown)
VH: QVQLQQWGAGLLKPSETLSLTCAVYGGSFSGYYWSWIRQSPEKGLEWIGEINHGGYVTYNPSLESRVTISVDTSKNQFSLKLSSVTAADTAVYYCARDYGPGNYDWYFDLWGRGTLVTVSS
VL: EIVLTQSPATLSLSPGERATLSCRASQSVSSYLAWYQQKPGQAPRLLIYDASNRATGIPARFSGSGSGTDFTLTISSLEPEDFAVYYCQQRSNWPPALTFGGGTKVEIK
For the molecule B1, in assay [1], the “NF-ĸB luciferase reporter in h4-1BB-expressing HEK293 cells, fold induction over unstimulated cells, cross-linked by Pfeiffer cells (FcγRIIB), max 250 nM” value was determined as 2.24 fold and the “NF-ĸB luciferase reporter in h4-1BB-expressing HEK293 cells, fold induction over unstimulated cells, no cross-linking, max 250 nM” value turned out to be 1.99 fold.

B2: urelumab Fab (Fab, V domains shown)
VH: B1 VH
VL: B1 VL
notes: urelumab heavy chain Fab region; urelumab kappa light chain (captured on an anti-human kappa surface); also called BMS-663513 (Fab); URE-Fab
B2: the Kd is 22 nM in assay [2], 16 nM in assay [3] and 18 nM in assay [4].
